Changes are numbered by the printed parent chain. In names and notes the source's numbering stands.
Columns and labels:
[1] = target: bovine LPL homodimer (LPL2) (bovine) (UniProt P11151)
[2] = target: bovine LPL homodimer (LPL2) (bovine) (UniProt P11151); assay: SPR; Biacore T200, CM4 chip; bovine LPL2 captured on immobilised mAb 5D2, GPIHBP1 as analyte (12.5-200 nM), single-cycle kinetic titration; 20°C; 10 mM HEPES (pH 7.4), 150 mM NaCl, 4 mM CaCl2, 0.05% P20, 0.2 mg/ml BSA; 1:1 model
[3] = target: Alexa-647–labeled GPIHBP1^34–131/R38G (human) (UniProt Q8IV16); assay: MST; Monolith NT.115; 5 nM Alexa-647-labeled GPIHBP1, LPL2 titrated 10 pM to 350 nM; 10 mM HEPES (pH 7.4), 150 mM NaCl, 4 mM CaCl2, 0.05% P20, 1.0 mg/ml BSA; 22°C; 1:1 model
[4] = target: T1, bovine LPL homodimer (LPL2) (bovine, UniProt P11151 29-478); assay: cell-based or functional assay
T1 sequence (looked up): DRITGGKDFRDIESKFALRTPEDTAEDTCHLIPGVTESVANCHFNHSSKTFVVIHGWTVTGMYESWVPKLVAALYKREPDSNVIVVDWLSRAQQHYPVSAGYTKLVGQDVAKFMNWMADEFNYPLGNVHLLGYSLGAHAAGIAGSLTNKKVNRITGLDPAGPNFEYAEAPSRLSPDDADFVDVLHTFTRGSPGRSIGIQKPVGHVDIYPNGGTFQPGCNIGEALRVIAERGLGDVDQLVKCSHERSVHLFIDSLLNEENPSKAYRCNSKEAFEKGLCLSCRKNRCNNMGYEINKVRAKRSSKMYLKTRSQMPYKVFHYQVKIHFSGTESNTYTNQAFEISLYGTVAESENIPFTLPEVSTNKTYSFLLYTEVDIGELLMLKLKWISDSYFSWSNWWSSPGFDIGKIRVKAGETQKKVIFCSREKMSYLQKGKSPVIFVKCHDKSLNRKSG

[5] = target: T1, bovine LPL homodimer (LPL2); assay: SPR; Biacore T200, CM4 chip; bovine LPL2 captured on immobilised mAb 5D2, GPIHBP1 as analyte (12.5-200 nM), single-cycle kinetic titration; 20°C; 10 mM HEPES (pH 7.4), 150 mM NaCl, 4 mM CaCl2, 0.05% P20, 0.2 mg/ml BSA; 1:1 model; settings: both partners purified
CTD^313–448 of human LPL = target: T2, CTD^313–448 of human LPL (human, UniProt P06858 340-475); assay: SPR; Biacore T200, CM4 chip; LPL CTD captured on immobilised mAb 5D2 (~100–200 RU), GPIHBP1 as analyte 8 nM to 4 µM; 20°C; 10 mM HEPES, 150 mM NaCl, 3 mM EDTA (pH 7.4), 0.05% P20; single- and multi-cycle kinetics, global fit to a 1:1 model; settings: both partners purified
T2 construct: lipoprotein lipase (LPL), human, C-terminal domain, residues 313-448; numbers count on: the mature protein; the printed surface densities (85 RU ~ 5 fmols/mm^2) fit about 17 kDa, that is a CTD without the tag (surmise); also called LPL CTD; C-terminal domain of LPL; source: Drosophila S2 cells, secreted as RS-DIII-ent-CTD, purified (anti-uPAR mAb R24 column)
T2 sequence (looked up): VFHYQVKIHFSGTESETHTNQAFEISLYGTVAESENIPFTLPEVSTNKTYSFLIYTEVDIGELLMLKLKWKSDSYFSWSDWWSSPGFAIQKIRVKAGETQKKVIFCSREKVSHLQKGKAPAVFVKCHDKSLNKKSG

[6] = target: T1, bovine LPL homodimer (LPL2); assay: MST; Monolith NT.115; 5 nM Alexa-647-labeled GPIHBP1, LPL2 titrated 10 pM to 350 nM; 10 mM HEPES (pH 7.4), 150 mM NaCl, 4 mM CaCl2, 0.05% P20, 1.0 mg/ml BSA; 22°C; 1:1 model; settings: both partners purified

GPIHBP1^34–131/R38G (from UniProt Q8IV16 54-151) (domain or fragment)
Loss of esterase activity (%) of LPL after 45 min at 25°C; relative to LPL without ligand (100%) [1]: 34.7%
Loss of triolein hydrolase activity (%) of LPL after 45 min at 25°C; relative to LPL without ligand (100%) [1]: 51.5%
Unfolding of NTD in LPL (%) after 45 min at 25°C, by pulse-labeling HDX-MS, equimolar ligand; relative to LPL without ligand (100%) [1]: 79.2%
Kd [2]: 91 nM
koff [2]: 0.019 s⁻¹
kon [2]: 190000 M⁻¹ s⁻¹

GPIHBP1^1–33 (peptide)
Loss of esterase activity (%) of LPL after 45 min at 25°C, peptide in 5-fold molar excess; relative to LPL without ligand (100%) [1]: 9.8%
Loss of triolein hydrolase activity (%) of LPL after 45 min at 25°C, peptide in 5-fold molar excess; relative to LPL without ligand (100%) [1]: 4.2%
Unfolding of NTD in LPL (%) after 45 min at 25°C, by pulse-labeling HDX-MS, equimolar ligand; relative to LPL without ligand (100%) [1]: 43%

bovine LPL homodimer (LPL2) (from UniProt P11151 29-478) (enzyme)
Kd [3]: 147 nM

B1: GPIHBP1^1–131/R38G (domain or fragment, human, UniProt Q8IV16 21-151, looked up)
chain: QTQQEEEEEDEDHGPDDYDEEDEDEVEEEETNRLPGGGSRVLLRCYTCKSLPRDERCNLTQNCSHGQTCTTLIAHGNTESGLLTTHSTWCTDSCQPITKTVEGTQVTMTCCQSSLCNVPPWQSSRVQDPTG
notes: numbers count on: the mature protein; Monomeric by SEC; Carries a single N-linked glycan; also called soluble human GPIHBP1; not shown: uPAR domain III (DIII), N-terminal, cleaved
Loss of esterase activity (%) of LPL after 45 min at 25°C; relative to LPL without ligand (100%) [4]: 11.4%
Loss of triolein hydrolase activity (%) of LPL after 45 min at 25°C; relative to LPL without ligand (100%) [4]: 28.7%
Unfolding of NTD in LPL (%) after 45 min at 25°C, by pulse-labeling HDX-MS, equimolar ligand; relative to LPL without ligand (100%) [4]: 32.6%
Kd [5]: 25 ± 7 nM
koff [5]: 0.023 ± 0.006 s⁻¹
kon [5]: 990000 M⁻¹ s⁻¹
Kd (CTD^313–448 of human LPL): 120 ± 40 nM
koff (CTD^313–448 of human LPL): 0.12 ± 0.04 s⁻¹
kon (CTD^313–448 of human LPL): 1.04e+06 M⁻¹ s⁻¹

B2: Alexa-647–labeled GPIHBP1^1–131/R38G (domain or fragment, human, UniProt Q8IV16 21-151, looked up)
chain: B1 chain
modifications: Alexa Flour-647 (NHS ester), average 1.3 flurophore/protein; conditions favor modification of the N-terminal α-amino group
notes: numbers count on: the mature protein; m1 with a fluorophore; source: Drosophila S2 cells, purified, labeled with Alexa Flour-647 NHS ester, desalted (PD-10); not shown: uPAR domain III (DIII), N-terminal, cleaved
Kd [6]: 5.7 nM

B3: GPIHBP1^1–131/R38G N-gly (domain or fragment, human, UniProt Q8IV16 21-151, looked up)
chain: B1 chain
modifications: the single N-linked glycan removed with N-glycanase
notes: numbers count on: the mature protein; As m1 after removal of the N-glycan; source: Drosophila S2 cells, purified, then incubated overnight at 37°C with N-glycanase under native conditions; not shown: uPAR domain III (DIII), N-terminal, cleaved
Kd (CTD^313–448 of human LPL): 150 nM
koff (CTD^313–448 of human LPL): 0.16 s⁻¹
kon (CTD^313–448 of human LPL): 1.06e+06 M⁻¹ s⁻¹

B4: GPIHBP1^1–131 (domain or fragment, human, UniProt Q8IV16 21-151, looked up)
chain: B1 chain with G38R
notes: numbers count on: the mature protein; not shown: uPAR domain III (DIII), N-terminal, cleaved
Kd [5]: 38 ± 29 nM
koff [5]: 0.02 ± 0.007 s⁻¹
kon [5]: 650000 M⁻¹ s⁻¹
Kd (CTD^313–448 of human LPL): 290 ± 130 nM
koff (CTD^313–448 of human LPL): 0.22 ± 0.07 s⁻¹
kon (CTD^313–448 of human LPL): 1.12e+06 M⁻¹ s⁻¹

B5: GPIHBP1^34–131/R38G (domain or fragment, human, UniProt Q8IV16 54-151, looked up)
chain: LPGGGSRVLLRCYTCKSLPRDERCNLTQNCSHGQTCTTLIAHGNTESGLLTTHSTWCTDSCQPITKTVEGTQVTMTCCQSSLCNVPPWQSSRVQDPTG
notes: numbers count on: the mature protein; Monomeric by SEC; also called truncated GPIHBP1 lacking the acidic domain; isolated LU domain; source: Drosophila S2 cells; not shown: uPAR domain III (DIII), N-terminal, cleaved
Kd (CTD^313–448 of human LPL): 1410 ± 760 nM
koff (CTD^313–448 of human LPL): 0.1 ± 0.01 s⁻¹
kon (CTD^313–448 of human LPL): 100000 M⁻¹ s⁻¹
